# “Also recorded” adds a separate entry of the source.
# B1: ApoE CT: C-terminal fragment of ApoE, positions 216-299 of SEQ ID NO: 12; SEQ ID NO: 33 (protein)
# chain: ARMEEMGSRTRDRLDEVKEQVAEVRAKLEEQAQQIRLQAEAFQARLKSWFEPLVEDMQRQWAGLVEKVQAAVGTSAAPVPSDNH
# Experiments:
# [1] = tested on: 5×FAD mice; experiment: Distribution of neuronally expressed ApoE around amyloid plaques in 5×FAD mice (immunofluorescence); type: in vivo, mouse
# Procedure: Mice were anesthetized with isoflurane and perfused with 4% PFA. Dissected mouse brains were fixed overnight in 4% PFA and cryoprotected overnight in 30% sucrose. A cryostat (Leica CM3050S) was used to obtain frozen brain slices ([…]) from fixed and cryoprotected mouse brains. Floating slices were washed 3 times with 1×PBS and then permeabilized with 0.5% Triton-X in 1×PBS for 30 minutes. After blocking with 5% BSA in 1×PBS at room temperature for 1 h, the slices were incubated overnight at 4° C. in 5% BSA (in 1×PBS) buffer comprising the primary antibody. Slices were washed 3 times with 1×PBS and incubated with secondary antibody diluted in 5% BSA (1×PBS) buffer for 1 hour at room temperature. Samples were then washed 3 times with 1×PBS and mounted with Prolong Gold Antifade Mountant (Life Technology).
# After being deeply anesthetized with isoflurane, mice (5 weeks old) were placed in a stereotaxic apparatus (RWD Instruments). The zero point (x, y, z, 0, 0, 0) is Bregma. Lentivirus (lentivirus-GFP, lentivirus-ApoE and lentivirus-ApoE-IRES-GFP) and AAV (AAV2/9-hSyn-EGFP-WPRE-pA and AAV2/9-hSyn-ApoECT; purchased from Shanghai Taitool Bioscience Co. Ltd.) were injected into the cortex (x, y, z, +/−1.6, 0, −1) or hippocampus (x, y, z, +/−1.5, −2, −1.5), injected 1 ul on each injection site. The mice were then returned to their cages for rehabilitation after surgery.
# [2] = tested on: APLP1; experiment: γ-cleavage of APLP1 expressed in HEK 293T cells (Western blot); type: cell-based; conditions: PF03084014 at 1 μM
# Procedure: • a) A plasmid expressing the target protein in mammalian cells was constructed, and the protein expression promoter is CAG. • b) The target protein was expressed in HEK 293T cell line. Cells were subcultured one day before transfection, and transfection was performed when the degree of cell adhesion reached 70%-80%. The transfection reagent was lipofectamine2000 (ThermoFisher). • c) 4-6 hours post transfection, the medium were replaced with fresh cell culture medium. • d) 36-48 hours post transfection, the cells were lysed (10% 1M tris-HCl (pH=6.8), 4% SDS, 20% glycerol, 0.01% bromophenol blue), and the protein samples were collected and used for Western blot or stored in a −80° C. freezer. • e) Polyacrylamide gel electrophoresis. Before protein loading, the protein was boiled at 98° C. for 10 min, and then centrifuged at 12000 rpm for 10 min. Electrophoresis: 80V for the upper stacking gel; 120V for the lower separating gel. • f) Protein transfer. […]
# Plasmids were transfected in HEK 293T or N2A cells for 36-48 hours and then lysed in cell lysis buffer [10% 1M tris-HCl (pH=6.8), 4% SDS, 20% glycerol, 0.01% bromophenol blue]. […] Finally, after washing 3 times with 1×TBST, the signal was detected by ECL Western blotting substrate (Solarbio, PE0010).
# [3] = tested on: human APP co-expressed in HEK 293T cells; experiment: α-CTF produced by APP co-expressed in HEK 293T cells (Western blot); type: cell-based; conditions: for α-CTF produced by co-expressed APP: Western blot
# Procedure: • a) A plasmid expressing the target protein in mammalian cells was constructed, and the protein expression promoter is CAG. • b) The target protein was expressed in HEK 293T cell line. Cells were subcultured one day before transfection, and transfection was performed when the degree of cell adhesion reached 70%-80%. The transfection reagent was lipofectamine2000 (ThermoFisher). • c) 4-6 hours post transfection, the medium were replaced with fresh cell culture medium. • d) 36-48 hours post transfection, the cells were lysed (10% 1M tris-HCl (pH=6.8), 4% SDS, 20% glycerol, 0.01% bromophenol blue), and the protein samples were collected and used for Western blot or stored in a −80° C. freezer. • e) Polyacrylamide gel electrophoresis. Before protein loading, the protein was boiled at 98° C. for 10 min, and then centrifuged at 12000 rpm for 10 min. Electrophoresis: 80V for the upper stacking gel; 120V for the lower separating gel. • f) Protein transfer. The filter paper was soaked in the electrophoresis solution before use, and the PVDF membrane was put in methanol for 10s to activate, and the gel after electrophoresis was taken out from the electrophoresis tank, put in the order of filter paper—PVD membrane—gel-filter paper from bottom to top, and they were put into the transfer instrument, with transferring in constant current at 0.1 A for 70 min. • g) Blocking and antibody incubation: the transferred PVDF membrane was placed in 5% BSA/TBST blocking solution, and blocked on a shaker at room temperature for 1 hour. The primary antibody was used to incubate at 4° C. overnight on a shaker (12-16 h); 1×TBST was used to wash three times, once every 10 minutes; the secondary antibody was used to incubate, shaked at room temperature for 1-2 h; 1×TBST was used to wash three times, once every 10 minutes. • h) Imaging by development: development was performed with ECL chemiluminescence hypersensitive chromogenic reagent.
# (§1) Plasmids were transfected in HEK 293T or N2A cells for 36-48 hours and then lysed in cell lysis buffer [10% 1M tris-HCl (pH=6.8), 4% SDS, 20% glycerol, 0.01% bromophenol blue]. Lysates were shaken at room temperature for 10 min, then boiled for 10 min, and centrifuged at 12,000×g for 10 min. Proteins were run on 8% or 12% Tris-glycine SDS-PAGE and transferred to PVDF membranes (Life Technologies). Samples were incubated overnight at 4° C. with primary antibody diluted in 5% BSA buffer (in 1×TBST). After washing 3 times with 1×TBST, they were incubated with secondary antibody diluted in 5% BSA buffer (in 1×TBST) for 2 hours at room temperature. Finally, after washing 3 times with 1×TBST, the signal was detected by ECL Western blotting substrate (Solarbio, PE0010).
# Data were analyzed by GraphPad Prism software (v6) using unpaired, paired, or one-sample t-tests. Aβ40 and Aβ42 levels were normalized to the corresponding GFP controls. α-CTF levels were normalized to FL-APP and corresponding GFP controls. All data are represented as mean±SEM. Statistical significance was defined as p<0.05. One, two, three and four stars (*) in the graph indicate p-values <0.05, <0.01, <0.001 and <0.0001, respectively.
# [4] = tested on: APP mutants; experiment: α-CTF produced by APP variants with AD-related mutations co-expressed in HEK 293T cells; type: cell-based, human
# Procedure: as §1
molecule,measurement,setting,value
B1,migration to and accumulation around amyloid plaques,"[1]; AAV expression in cortex, DG and CA3 neurons",migrated to the subiculum and accumulated in amyloid plaques
same,accumulation around amyloid plaques,[1]; lentiviral vectors,a similar distribution pattern was detected around amyloid plaques
same,α-like CTF of APLP1,[2],does not increase the α-like CTF of APLP1; also recorded: did not increase the α-like CTF
same,level of α-CTF compared with ApoE2,[3],significantly increases the level of α-CTF
same,increase of α-CTF in the presence of GI254023X,[3]; 1 μM ADAM10 inhibitor GI254023X,approximately 4 fold
same,α-CTF in the presence of PF03084014,[3]; 1 μM γ-secretase inhibitor PF03084014,failed to further increase α-CTF
same,α-CTF when β-secretase inhibited by AZD3839,[3]; 5 μM AZD3839,still increases α-CTF
same,α-CTF produced by APP co-expressed with PS1,"[3]; APP and PS1 co-expressed, PF03084014 at 1 μM",significantly increases α-CTF; also recorded: can increase the production of α-CTF
same,γ-cleavage of APP (α-CTF) when co-expressed with γ-secretase,"[3]; APP, γ-secretase and ApoE CT co-expressed",still inhibited γ-cleavage of APP
same,α-CTF produced by co-expressed APP,[3]; vs GFP control,significantly increased α-CTF; also recorded: increased the α-CTF
same,α-CTF produced by co-expressed APP,"[3]; vs GFP control, listed as human ApoE CT",also increase α-CTF
same,increase in α-CTF levels,[3]; vs GFP control,more than 6 fold
same,α-CTF level,[3]; vs GFP control,more than 5 times the original level
same,"effect on α-CTF levels, Icelandic mutation",[4]; APP A673T,no difference
same,ability to increase α-CTF levels compared to WT APP,"[4]; APP fAD mutations near γ cleavage site (T714I, V717F, L723P)",significantly reduced
same,α-CTF produced by all tested APP mutants,[4]; HEK 293T cells,increased α-CTF
same,α-CTF produced by APPM596V,"[4]; HEK 293T cells, APP mutation that cannot conduct β-cleavage",able to increase α-CTF
same,"effect on α-CTF levels, WT APP vs APP mutants","[4]; fAD mutations near β- or α-cleavage site (KM670/671NL, E693K, E693A)",no statistically significant difference

# — US20250108100A1, “C-TERMINAL FRAGMENT OF APOLIPOPROTEIN E AND APPLICATION THEREOF IN INHIBITING y-SECRETASE ACTIVITY” (SYNPHATEC (SHANGHAI) BIOPHARMACEUTICAL TECHNOLOGY CO., LTD., priority 2022, published 2025)
